From patent US6620616B1, “Nucleic acids encoding nitric oxide synthase variants” (The Cleveland Clinic Foundation, priority 2000, dated 2003)

Experiments:
[1] = NO synthesis from Arg (initial rate); format: biochemical; conditions: for NO synthesis from Arg, turn over number (kcat): 25° C.
Protocol: (§1) The initial rate of NO synthesis, NADPH oxidation, or cytochrome c reduction by wild type and mutants was quantitated at 25° C. as described in Abu-Soud et al. (1997) J. Biol. Chem 272: 10769-10772. H2O2-dependent nNOS oxidation of NOHA to nitrite was assayed in 96-well microplates at 30° C. The assay volume was 100 μl and contained 40 mM EPPS, pH 7.6, 250 nM nNOS or mutants, 1 mM NOHA, 1 mM DTT, 25 units/ml superoxide dismutase 0.5 mM EDTA, and 4 μM H4B. Reactions were initiated by adding 30 mM H2O2 and stopped after 10 min by adding 1300 units of catalase. Nitrite was detected at 550 nm using the Griess reagent (100 μL) and quantitated based on nitrite standards.

[2] = NO synthesis from NOHA (initial rate); format: biochemical; conditions: 25° C.
Protocol: as §1

[3] = NADPH oxidation; format: biochemical; conditions: 25° C.
Protocol: as §1

[4] = tested on: cytochrome c; test: Cytochrome c reduction; format: biochemical; conditions: 25° C.
Protocol: as §1

[5] = Ferrous-nitrosyl complex formation during aerobic steady state; format: biochemical; conditions: air-saturated buffer, 15° C., 1 mM Arg, 20 μM H4B
Protocol: NO down-regulates the rate of NO synthesis and associated electron flux by binding to the nNOS heme. We therefore investigated if NO binding to the heme was altered by the Trp-409 mutations during aerobic steady-state catalysis. In this study, 0.6 μM nNOS was diluted is an air-saturated 40 mM EPPS buffer, pH 7.6, containing 0.9 mM EDTA, 3 μM CaM, 200 μM DTT, 20 μM H4B, 80 μM NADPH, and 1 mM Arg; final volume 1 ml. Reactions were started by adding 1.2 mM Ca^2+ and monitored by wavelength scanning at 15° C.

[6] = NO synthesis versus O2 concentration (oxyhemoglobin assay); format: biochemical; conditions: O2 levels ranging from 0 to 230 mm O2, 25° C., FIG. 3
Protocol: The reaction was started by adding 0.2 mM NADPH. Rates of synthesis were quantified as follows: the initial rate of NO synthesis by nNOS was quantitated at 25° C. using oxyhemoglobin assay for NO, according to the method found in Abu-Soud and Stuehr (1993) Proc. Natl. Acad. Sci. U.S.A. 90:10769-10772. The NO mediated conversion of oxyhemoglobin to met-hemoglobin was monitored over time as an absorbence increase at 401 nm, and quantitated using the extinction coefficient of 38 mM^−1 cm^−1. Quantitation was done with a Hitachi U2000 spectrophotometer. O2 concentration measurement in each reaction was calculated based on the O2 concentration of a saturated buffer at 25° C. (approximately 0.26 mM) and the mixing ratios of this solution with an anaerobic buffer that contained no oxygen. […] The difference in the enzymatic activity of the NOS variant and wild-type NOS is most pronounced at low concentrations of O2, i.e., concentrations ranging from 0 to 50 μM.

[7] = Ferric- and ferrous-NO complex formation under anaerobic conditions; format: binding; conditions: Arg and H4B present
Protocol: Given the above, we investigated if either mutant could form stable ferric or ferrous NO complexes with authentic NO under an anaerobic atmosphere in the presence of Arg and H4B, as occurs for wild-type nNOS. Concentrated small amounts of nNOS or mutants were placed into an anaerobic cuvette with 4 μM H4B, 1 mM Arg, and 200 μM DTT and made anaerobic by repeated cycles of evacuation and equilibration with deoxygenated argon gas. A 40 mM EPPS buffer containing 4 μM H4B, 1 mM Arg, and 200 μM DTT was separately made anaerobic, and 1 ml of this solution was transferred to the cuvette. NO gas was added to the head space and dissolved by mixing. Dithionite solution was then added in some cases.

[8] = CaM-bound, +H4B, NAME (nitro-L-arginine methyl ester)

Substance	faster rate of NO synthesis from Arg compared with the wild type ([1]; +CaM)	NO synthesis from Arg, turn over number (kcat) ([1]; +CaM)	NO synthesis from Arg, turn over number (kcat) ([1]; −CaM)	NO synthesis from NOHA, turn over number (kcat) ([2]; +CaM)	NO synthesis from NOHA, turn over number (kcat) ([2]; −CaM)	NADPH oxidation, turn over number (kcat) ([3]; +CaM)	NADPH oxidation, turn over number (kcat) ([3]; CaM-bound, +H4B, Arg)	NADPH oxidation, turn over number (kcat) [3, 8]	NADPH oxidation, turn over number (kcat) ([3]; CaM-bound, +H4B, agmatine)	NADPH oxidation, turn over number (kcat) ([3]; CaM-bound, +H4B, −Arg)	NADPH oxidation, turn over number (kcat) ([3]; CaM-bound, −H4B, −Arg)	NADPH oxidation, turn over number (kcat) ([3]; −CaM)	Cytochrome c reduction, turn over number (kcat) ([4]; +CaM)	Cytochrome c reduction, turn over number (kcat) ([4]; −CaM)	6-coordinate ferrous-NO complex accumulation (absorbance buildup at 436 nm) during steady-state NO synthesis [5]	rate of NO production relative to wild-type nNOS [6]	ferric NO complex formation with authentic NO [7]	ferrous-NO complex after dithionite reduction ([7]; dithionite added)
W409Y: rat nNOS variant with tyrosine (Y) at position 409 in place of tryptophan, His6-tagged, expressed in E. coli	1.8 fold	155 mol of product formed/mol of protein/min	0 mol of product formed/mol of protein/min	180 mol of product formed/mol of protein/min	0 mol of product formed/mol of protein/min	237 mol of product formed/mol of protein/min	250 + 20 min^−1	25 + 4 min^−1	170 + 10 min^−1	124 + 4 min^−1	74 + 8 min^−1	11.2 mol of product formed/mol of protein/min	5546 mol of product formed/mol of protein/min	280 mol of product formed/mol of protein/min	no	faster than the wild-type nNOS protein		
W409F: rat nNOS variant with phenylalanine (F) at position 409 in place of tryptophan, His6-tagged, expressed in E. coli	3 fold	286 mol of product formed/mol of protein/min	0 mol of product formed/mol of protein/min	453 mol of product formed/mol of protein/min	0 mol of product formed/mol of protein/min	445 mol of product formed/mol of protein/min	480 + 20 min^−1	16 + 3 min^−1	180 + 10 min^−1	189 + 15 min^−1	105 + 10 min^−1	5.6 mol of product formed/mol of protein/min	5000 mol of product formed/mol of protein/min	230 mol of product formed/mol of protein/min	small	faster than the wild-type nNOS protein		
nNOS: wild-type rat neuronal nitric oxide synthase, His6-tagged, expressed in E. coli; non-variant comparator [reference compound]		96 mol of product formed/mol of protein/min	0 mol of product formed/mol of protein/min	115 mol of product formed/mol of protein/min	0 mol of product formed/mol of protein/min	170 mol of product formed/mol of protein/min	160 + 12 min^−1	22 + 4 min^−1	250 + 20 min^−1	500 + 25 min^−1	290 + 25 min^−1	11.2 mol of product formed/mol of protein/min	7000 mol of product formed/mol of protein/min	500 mol of product formed/mol of protein/min	a significant percentage accumulated as the 6-coordinate ferrous-NO complex		formed stable 6-coordinate ferric NO complexes	stable 6-coordinate ferrous-NO complex
